Test results as given in IntAct's records for PubMed 18200045.

B1: Epidermal growth factor receptor substrate 15 (Homo sapiens), P42566 (parent)
chain: MAAAAQLSLTQLSSGNPVYEKYYRQVDTGNTGRVLASDAAAFLKKSGLPDLILGKIWDLADTDGKGILNKQEFFVALRLVACAQNGLEVSLSSLNLAVPPPRFHDTSSPLLISGTSAAELPWAVKPEDKAKYDAIFDSLSPVNGFLSGDKVKPVLLNSKLPVDILGRVWELSDIDHDGMLDRDEFAVAMFLVYCALEKEPVPMSLPPALVPPSKRKTWVVSPAEKAKYDEIFLKTDKDMDGFVSGLEVREIFLKTGLPSTLLAHIWSLCDTKDCGKLSKDQFALAFHLISQKLIKGIDPPHVLTPEMIPPSDRASLQKNIIGSSPVADFSAIKELDTLNNEIVDLQREKNNVEQDLKEKEDTIKQRTSEVQDLQDEVQRENTNLQKLQAQKQQVQELLDELDEQKAQLEEQLKEVRKKCAEEAQLISSLKAELTSQESQISTYEEELAKAREELSRLQQETAELEESVESGKAQLEPLQQHLQDSQQEISSMQMKLMEMKDLENHNSQLNWCSSPHSILVNGATDYCSLSTSSSETANLNEHVEGQSNLESEPIHQESPARSSPELLPSGVTDENEVTTAVTEKVCSELDNNRHSKEEDPFNVDSSSLTGPVADTNLDFFQSDPFVGSDPFKDDPFGKIDPFGGDPFKGSDPFASDCFFRQSTDPFATSSTDPFSAANNSSITSVETLKHNDPFAPGGTVVAASDSATDPFASVFGNESFGGGFADFSTLSKVNNEDPFRSATSSSVSNVVITKNVFEETSVKSEDEPPALPPKIGTPTRPCPLPPGKRSINKLDSPDPFKLNDPFQPFPGNDSPKEKDPEIFCDPFTSATTTTNKEADPSNFANFSAYPSEEDMIEWAKRESEREEEQRLARLNQQEQEDLELAIALSKSEISEA
partner: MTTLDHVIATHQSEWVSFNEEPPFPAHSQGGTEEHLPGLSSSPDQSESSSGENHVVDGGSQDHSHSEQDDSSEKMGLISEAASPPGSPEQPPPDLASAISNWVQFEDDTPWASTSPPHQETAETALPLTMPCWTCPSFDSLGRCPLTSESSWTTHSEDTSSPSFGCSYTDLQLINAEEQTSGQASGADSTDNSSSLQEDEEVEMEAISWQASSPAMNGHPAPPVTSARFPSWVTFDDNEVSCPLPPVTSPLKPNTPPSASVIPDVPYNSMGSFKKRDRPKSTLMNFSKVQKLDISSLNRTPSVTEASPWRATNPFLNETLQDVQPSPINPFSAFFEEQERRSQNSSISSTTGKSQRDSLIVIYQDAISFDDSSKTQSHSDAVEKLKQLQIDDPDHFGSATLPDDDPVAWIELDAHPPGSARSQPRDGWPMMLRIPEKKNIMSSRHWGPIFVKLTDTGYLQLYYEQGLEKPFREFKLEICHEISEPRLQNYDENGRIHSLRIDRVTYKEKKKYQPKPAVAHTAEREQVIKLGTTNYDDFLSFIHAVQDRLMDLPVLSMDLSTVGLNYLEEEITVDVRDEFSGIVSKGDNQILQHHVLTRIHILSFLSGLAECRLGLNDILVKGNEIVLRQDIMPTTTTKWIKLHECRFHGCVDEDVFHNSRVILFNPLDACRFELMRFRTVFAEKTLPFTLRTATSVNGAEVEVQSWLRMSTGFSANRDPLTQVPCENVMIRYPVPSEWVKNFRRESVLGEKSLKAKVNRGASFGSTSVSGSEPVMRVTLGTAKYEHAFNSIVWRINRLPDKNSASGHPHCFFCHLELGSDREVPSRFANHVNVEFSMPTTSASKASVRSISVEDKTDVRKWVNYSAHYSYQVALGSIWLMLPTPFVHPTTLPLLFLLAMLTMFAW

Variants of: B1
Conditions: with ston2_human STON2, Q8WXE9

Row | effect of a mutation on the interaction | Variant
1 | decreasing interaction | W266A

Variants of: B1
Conditions: with ston2_human STON2, Q8WXE9
Remark: another data set of the same source

Row | effect of a mutation on the interaction | Variant
2 | decreasing interaction | W169A

Variants of: B1
Conditions: with ston2_human STON2, Q8WXE9
Remark: another data set of the same source

Row | effect of a mutation on the interaction | Variant
3 | disrupting interaction | W169A

Variants of: B1
Conditions: with ston2_human STON2, Q8WXE9
Remark: another data set of the same source

Row | effect of a mutation on the interaction | Variant
4 | decreasing interaction | Y193D

Variants of: B1
Conditions: with ston2_human STON2, Q8WXE9
Remark: another data set of the same source

Row | effect of a mutation on the interaction | Variant
5 | decreasing interaction | V154E

Variants of: B1
Conditions: with ston2_human STON2, Q8WXE9
Remark: another data set of the same source

Row | effect of a mutation on the interaction | Variant
6 | disrupting interaction | V154E
